Test results as given in the supplement of paper PMC7877785.
± gives the uncertainty stated by the source.

Test: self-splicing fitness, log relative to wild type (ln ratio); higher = more splicing; Tetrahymena group I intron in knt gene, E. coli kanamycin selection, DiMSum; sequences stand for … in CUCUCU…GGAGGGAAAAGUUAUCAGGCAUGCACCUGGUAGCUAGUCUUUAAACCAAUAGAUUGCAUCGGUUUAAAAGGCAAGACCGUCAAAUUGCGGGAAAGGGGUCAACAGCCGUUCAGUACCAAGUCUCAGGGGAAACUUUGAGAUGGCCUUGCAAAGGGUAUGGUAAUAAGCUGACGGACAUGGUCCUAACCACGCAGCCAAGUCCUAAGUCAACAGAUCUUCUGUUGAUAUGGAUGCAGUUCACAGACUAAAUGUCGGUCGGGGAAGAUGUAUUCUUCUCAUAAGAUAUAGUCGGACCUCUCCUUAAUGGGAGCUAGCGGAUGAAGUGAUGCAACACUGGAGCCGCUGGGAACUAAUUUGUAUGCGAAAGUAUAUUGAUUAGUUUUGGAGUACUCGUGGUCG
In short: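 Colonies from six replicate transformations of E. coli BL21(DE3) were pooled and amplicon-sequenced on an Illumina HiSeq 2500. The library placed an intron with all eight P1ex-region nucleotides randomised inside the knt kanamycin-resistance gene on pET-22b(+), and cells grew overnight at 37°C or 30°C on LB agar with or without 25 μg/mL kanamycin (plus 100 μg/mL carbenicillin, 50 μM IPTG, 0.2% rhamnose). Fitness is the DiMSum error-weighted combination of wild-type-normalised replicate fold changes, kanamycin versus none.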

Sequence	self-splicing fitness (ln) (30 °C)	self-splicing fitness (ln) (37 °C)
UUCAAGCAAUAUUACGAUGC	-3.39 ± 0.45	-1.85 ± 0.28
UUCAAGCAAUAUUACGCAGA	-3.11 ± 0.35	-1.91 ± 0.2
UUCAAGCAAUAUUACGCAUC	-3.87 ± 0.29	-1.81 ± 0.17
UUCAAGCAAUAUUACGCCUG		-1.64 ± 0.34
UUCAAGCAAUAUUACGCGAU	-2.11 ± 0.16	-3 ± 0.34
UUCAAGCAAUAUUACGCUAG	-2.23 ± 0.23	-2.32 ± 0.26
UUCAAGCAAUAUUACGGACA	-0.496 ± 0.12	0.121 ± 0.11
UUCAAGCAAUAUUACGGAUU	-3.19 ± 0.17	-1.96 ± 0.14
UUCAAGCAAUAUUACGGCUA	-0.138 ± 0.094	-0.12 ± 0.087
UUCAAGCAAUAUUACGGGAG	-1.78 ± 0.098	-0.95 ± 0.097
UUCAAGCAAUAUUACGGGCG	-0.977 ± 0.077	-0.629 ± 0.1
UUCAAGCAAUAUUACGGGGU	-3.57 ± 0.21	-3.15 ± 0.25
UUCAAGCAAUAUUACGGUGG	-1.54 ± 0.12	-0.439 ± 0.13
UUCAAGCAAUAUUACGGUUG	-2.96 ± 0.14	-2.41 ± 0.18
UUCAAGCAAUAUUACGUAAA	-0.739 ± 0.086	-0.541 ± 0.14
UUCAAGCAAUAUUACGUCCU	-1.99 ± 0.12	-1.04 ± 0.14
UUCAAGCAAUAUUACGUCGC	-4.02 ± 0.3	-2.17 ± 0.3
UUCAAGCAAUAUUACGUGGG	-3.07 ± 0.11	-1.97 ± 0.13
UUCCAGCAAUAUUACGAAAA	-0.987 ± 0.11	0.126 ± 0.11
UUCCAGCAAUAUUACGACCU	-2.38 ± 0.26	-3.19 ± 0.39
UUCCAGCAAUAUUACGACGU	-2.06 ± 0.18	-2.18 ± 0.2
UUCCAGCAAUAUUACGAUGG	-2.91 ± 0.24	

Sequence	self-splicing fitness (ln) (30 °C)	self-splicing fitness (ln) (37 °C)
UUCCAGCAAUAUUACGAUGU	-3.24 ± 0.12	-2.22 ± 0.16
UUCCAGCAAUAUUACGCAAG	-1.62 ± 0.07	-0.644 ± 0.09
UUCCAGCAAUAUUACGCCAA	-0.739 ± 0.12	-0.362 ± 0.17
UUCCAGCAAUAUUACGCUAU	-2.04 ± 0.085	-0.605 ± 0.083
UUCCAGCAAUAUUACGCUCC	-2.51 ± 0.24	-0.988 ± 0.22
UUCCAGCAAUAUUACGCUGG	-3.73 ± 0.27	-2.51 ± 0.31
UUCCAGCAAUAUUACGGAAC		-3.19 ± 0.4
UUCCAGCAAUAUUACGGACA	-0.469 ± 0.068	-0.0722 ± 0.077
UUCCAGCAAUAUUACGGAUU	-1.9 ± 0.11	-1.01 ± 0.12
UUCCAGCAAUAUUACGGCAC	-2.78 ± 0.21	-0.351 ± 0.2
UUCCAGCAAUAUUACGGCUU	-1.4 ± 0.11	-0.36 ± 0.1
UUCCAGCAAUAUUACGGGCA	-0.578 ± 0.067	0.454 ± 0.089
UUCCAGCAAUAUUACGUACC	-2.05 ± 0.24	-1.71 ± 0.31
UUCCAGCAAUAUUACGUAGG	-4.29 ± 0.42	-2.44 ± 0.23
UUCCAGCAAUAUUACGUCAC	-2.79 ± 0.18	-3.15 ± 0.29
UUCCAGCAAUAUUACGUGCC		-2.5 ± 0.39
UUCCAGCAAUAUUACGUGGU	-3.26 ± 0.17	-2.08 ± 0.14
UUCCAGCAAUAUUACGUUAU	-3.08 ± 0.12	-1.95 ± 0.15
UUCCAGCAAUAUUACGUUCA	-0.829 ± 0.13	0.389 ± 0.12
UUCCAGCAAUAUUACGUUGG	-3.19 ± 0.21	-2.53 ± 0.21
UUCGAGCAAUAUUACGAACU	-3.28 ± 0.32	-0.827 ± 0.44
